Test results: patent US20200087373A1 (UNIVERSITY OF COPENHAGEN, published 2020)
Values joined by “and” are separate entries in the source; they are usually repeats but may differ in a detail not shown here. Equal values may be shown once. Ends that are not written are not given here. * marks the point of attachment. C16 diacid = O=C(O)CCCCCCCCCCCCCCC(=O)*

T1: human GIP receptor (human, UniProt P48546 22-466)
T1 construct: whole, on cells; also called hGIPR
T1 sequence (looked up): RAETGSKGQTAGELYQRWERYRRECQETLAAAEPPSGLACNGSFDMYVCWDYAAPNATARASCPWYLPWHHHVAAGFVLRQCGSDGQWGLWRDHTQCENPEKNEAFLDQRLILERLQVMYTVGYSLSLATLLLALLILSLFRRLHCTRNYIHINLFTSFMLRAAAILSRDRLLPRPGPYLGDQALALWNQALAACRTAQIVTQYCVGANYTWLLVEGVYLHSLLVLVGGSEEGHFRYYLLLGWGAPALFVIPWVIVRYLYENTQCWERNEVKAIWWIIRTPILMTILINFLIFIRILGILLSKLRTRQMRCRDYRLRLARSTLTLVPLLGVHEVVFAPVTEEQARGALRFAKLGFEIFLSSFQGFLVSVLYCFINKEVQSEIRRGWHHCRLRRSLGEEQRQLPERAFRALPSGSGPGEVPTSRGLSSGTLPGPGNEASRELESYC


Legend:
[1] = molecular target: T1, human GIP receptor; assay: 125I-hGIP competition binding, COS-7/hGIPR, 2% HSA;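 further: nonspecific binding defined as radioligand binding to untransfected cells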
Experimental: (§1) After incubation, the cells were washed twice in ice-cold binding buffer (+/−2% HSA) and lysed using 200 mM NaOH with 1% SDS for 30 min. Nonspecific binding was determined as the binding of radioactive ligand to untransfected cells.

[2] = molecular target: T1, human GIP receptor; assay: 125I-hGIP competition binding, COS-7/hGIPR, 0.1% casein;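 further: nonspecific binding defined as radioligand binding measured on untransfected cells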
Experimental: as §1

[3] = molecular target: T1, human GIP receptor; assay: 125I-hGIP competition binding, COS-7 cells expressing hGIPR;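 further: nonspecific binding taken as radioligand bound by untransfected cells, binding buffer with or without 2% HSA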
Experimental: as §1

[4] = molecular target: T1, human GIP receptor; assay: cell-based or functional assay
[5] = molecular target: T1, human GIP receptor; assay: IC50 with 2% HSA over IC50 with 0.1% casein, 125I-hGIP competition, COS-7/hGIPR
Experimental: as §1

Binder	IC50 [1] [nM]	logIC50 [1] [log M]	IC50 [2] [nM]	logIC50 [2] [log M]	IC50 [3] [nM]	log IC50 [3]	cAMP agonism, Emax [4]	cAMP antagonism [4] [nM]	cAMP antagonism, log [4] [log M]	Fold change HSA (2%)/Casein (0.1%) [5] [fold]	cAMP agonism [4] [nM]	cAMP agonism, EC50 (log) [4]
TFISDYSIAMDKIHQQDFVNWK(C16 diacid)LAQK-NH2 (N-terminus assumed; SMILES CC[C@H](C)[C@H](NC(=O)[C@H](CO)NC(=O)[C@H](Cc1ccc(O)cc1)NC(=O)[C@H](CC(=O)O)NC(=O)[C@H](CO)NC(=O)[C@@H](NC(=O)[C@H](Cc1ccccc1)NC(=O)[C@@H](N)[C@@H](C)O)[C@@H](C)CC)C(=O)N[C@@H](C)C(=O)N[C@@H](CCSC)C(=O)N[C@@H](CC(=O)O)C(=O)N[C@@H](CCCCN)C(=O)N[C@H](C(=O)N[C@@H](Cc1c[nH]cn1)C(=O)N[C@@H](CCC(N)=O)C(=O)N[C@@H](CCC(N)=O)C(=O)N[C@@H](CC(=O)O)C(=O)N[C@@H](Cc1ccccc1)C(=O)N[C@H](C(=O)N[C@@H](CC(N)=O)C(=O)N[C@@H](Cc1c[nH]c2ccccc12)C(=O)N[C@@H](CCCCNC(=O)CCCCCCCCCCCCCCC(=O)O)C(=O)N[C@@H](CC(C)C)C(=O)N[C@@H](C)C(=O)N[C@@H](CCC(N)=O)C(=O)N[C@@H](CCCCN)C(N)=O)C(C)C)[C@@H](C)CC) [AT186 [hGIP(5-30)NH2[L26K]-C16diacid/26]]	331	-6.5	87.1	-7.1	144	-6.8 log M and -6.84 log M	0	79	-7.1	3.8		
TFISDYSIAMDKIHQQDFVNWLK(C16 diacid)AQK-NH2 (N-terminus assumed; SMILES CC[C@H](C)[C@H](NC(=O)[C@H](CO)NC(=O)[C@H](Cc1ccc(O)cc1)NC(=O)[C@H](CC(=O)O)NC(=O)[C@H](CO)NC(=O)[C@@H](NC(=O)[C@H](Cc1ccccc1)NC(=O)[C@@H](N)[C@@H](C)O)[C@@H](C)CC)C(=O)N[C@@H](C)C(=O)N[C@@H](CCSC)C(=O)N[C@@H](CC(=O)O)C(=O)N[C@@H](CCCCN)C(=O)N[C@H](C(=O)N[C@@H](Cc1c[nH]cn1)C(=O)N[C@@H](CCC(N)=O)C(=O)N[C@@H](CCC(N)=O)C(=O)N[C@@H](CC(=O)O)C(=O)N[C@@H](Cc1ccccc1)C(=O)N[C@H](C(=O)N[C@@H](CC(N)=O)C(=O)N[C@@H](Cc1c[nH]c2ccccc12)C(=O)N[C@@H](CC(C)C)C(=O)N[C@@H](CCCCNC(=O)CCCCCCCCCCCCCCC(=O)O)C(=O)N[C@@H](C)C(=O)N[C@@H](CCC(N)=O)C(=O)N[C@@H](CCCCN)C(N)=O)C(C)C)[C@@H](C)CC) [AT187 [hGIP(5-30)NH2[L27K]-C16diacid/27]]	676	-6.2	144	-6.8	26500	-4.6 log M and -4.58 log M	25	2380	-5.6	4.7	2380	-6 log M and -5.6 log M
